The source of these data is paper PMC4933465.

Among the targets are Biotinylated CCL21 (UniProt O00585); CCL7 (UniProt P80098); CCL2 (UniProt P13500).
Test [1] has as its target Link_TSG6 (recombinant Link module from human TSG-6) (human) (UniProt P98066). The test is described as follows: SPR; Link_TSG6 amine-coupled to a C1 chip (800–1000 RU), chemokine as analyte; BIAcore 3000; 10 mM HEPES, 150 mM NaCl, 0.05% Tween 20, pH 7.4; 40 μl/min; 1:1 Langmuir model; apparent affinities. (In general: SPR reads the build-up and loss of mass on a sensor chip optically.)

Link_TSG6 (recombinant Link module from human TSG-6) (human), sequence (P98066 36-133): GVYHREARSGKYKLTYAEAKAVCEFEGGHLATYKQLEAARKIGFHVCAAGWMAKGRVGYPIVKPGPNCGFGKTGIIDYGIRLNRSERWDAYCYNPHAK
Link_TSG6 (recombinant Link module from human TSG-6), sequence (P98066 36-133): as above
CCL7, sequence (P80098 24-99): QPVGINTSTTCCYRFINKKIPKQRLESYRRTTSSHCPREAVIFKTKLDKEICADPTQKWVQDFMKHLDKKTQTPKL
Biotinylated CCL21, sequence (O00585 24-134): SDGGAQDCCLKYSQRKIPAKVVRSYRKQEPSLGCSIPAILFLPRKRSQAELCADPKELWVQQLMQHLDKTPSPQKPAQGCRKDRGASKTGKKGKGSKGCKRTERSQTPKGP
CCL2, sequence (P13500 24-99): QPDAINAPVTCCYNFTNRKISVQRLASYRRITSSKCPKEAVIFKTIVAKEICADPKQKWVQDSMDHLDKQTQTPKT

As a reminder, the koff is the rate constant with which the complex falls apart. As a reminder, the kon is the second-order rate constant of association. Consider CXCL4 (ligand), for which, in test [1], the Kd was determined as 3.9 nM, the koff amounted to 0.0014 s⁻¹ and the kon was 360000 M⁻¹ s⁻¹.
With “Link_TSG6 (recombinant Link module from human TSG-6) (from UniProt P98066 36-133) (domain or fragment)”, the accumulation of biotinylated CCL21 (50 nM) on EaHY926 endothelial cells after pre-incubation with Link TSG6 at a 1:1 molar ratio (% of chemokine alone) in the test with Biotinylated CCL21 turned out to be 50. The accumulation of CCL7 (50 nM) on EaHY926 endothelial cells after pre-incubation with Link TSG6 at a 1:1 molar ratio (% of chemokine alone) with CCL7 is 50. In the test with Biotinylated CXCL4, this substance displayed an accumulation of biotinylated CXCL4 (10 nM) on EaHY926 endothelial cells after pre-incubation with a 5-fold molar excess of Link TSG6 (% of chemokine alone) of 51. Moreover, the accumulation of CCL2 (50 nM) on EaHY926 endothelial cells after pre-incubation with Link TSG6 at 1:1 to 5:1 molar ratio (∼75 to ∼55% of chemokine alone) (% of chemokine alone) with CCL2 turned out to be 75.
